Data from the domain aggregation screens of Martell et al. (2025).

test: soluble fraction after stress (log2 fold change); higher = more stays soluble; pooled small domains, quantitative proteomics; settings: stress: 50 degC
Method in brief: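 Pooled custom libraries of small protein domains were measured in a high-throughput format, with quantitative proteomics as the read-out. Each library was stressed at 50°C. Aggregation propensity is given as the base-two logarithm of the fold change in how much of each protein stays soluble after the stress. Higher values mean a larger share of the protein remains in solution.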

Sequence	soluble fraction (log2)
HMNEISFYPNPAKESLTVKGLSEITSYSISDINGKLIQYGTTFDRINLEKLTKGFYFLTIGNTISKKLIV	-0.39
HMAGSGDLNAKYLASIPAPMKAKILKAVANHYGVSISEFEEEVTDKDAEALYEYIPTRSMAVQVLRDMKG	-0.373
HMEIHIGSLIKEKMEERGLSVSDFAHALHYERTNIYKIFKRSSIDVDLLLRISEVLAYDFLREVYL	-2.63
HMETFNMTQKEITRLRVINQAIDKVITIREAAELLGLSERQVIRLKGGVEKFGPAFIIHKNRGRKP	-0.71
HMENPMIEQLKQFIEAQGLTQGQLAAKLGVSTATVNQYLQGKYKGDTAALDAKAAQLMARSREK	0.103
HMTESLVITVDPALHGLRLDRGLADALPDRSRSEVQRWIKEGRVQLHGAPAKPSLKLAAGDIVTIALPEE	0.393
HMLFRGNGFNTLYDKQLRITQQGEFKDGRLWDGKYYRYSKAGELVRIEIYEQGRYAGNGVITDEDKA	-0.845
HMAFEITSAERTRLEDIARKGLTAYTAEWKQLPASEKKALNKTGLQDFLKSMAADADSAREEEA	0.0772
HMELDFLRLQIITGIHSGRLSNNEILMMYDTYSQKGGNSYVSRIVNDYVDENNIKEEGKRNARK	-0.346
HMTLHEAMEKLFRQVGRPMTTKEIAEKLNENKWYQKADGSPLTPYQIYGRAKNYPALFHREGSIIYLKGS	-0.41
HMSHGFVHLKGAVQHPGIYPVKENTRWDEVVKAAGGLTAAADIQQVNLAKVASDQESLYVPEKGET	0.098
HMSYFNEYEVGDTIRVVNGPLADQISTITAIDKEKGLVNISTVFFGRENNVQVSINDIEKYN	0.0466
HMSSFFLIDVSQVRIGMYIQLDVGWMRHPFPVNSFRITNQEQLDTLRSLNLAQVRWSPAKSDL	-3.77
HMAWIGEHTVTSEDTLSHIALKFYGHATPPYYKLIYEANKAIIGDNMNIIVPGQVLRIPALPEEL	-0.345
HMGPLYARVKAIVLARIMGGDWPPGTALPAEMELARALGVSQGTVRKALDALTAEQVVVRRQGSGTYVAE	-1.04
HMGHLSNENAGRLLDRVLNDKIHAIMLGHLSKENNMPELAHEAVRMEITMGESRYKADDFPIYVA	0.11
HMSDIDIDVENDRAALAIAGGKLNHLVGARGEVLDALQELTRLAVQTSLGERSRLMLDIDNFRSD	-0.00224
HMQQPVAYSEFVQSVNDRQIREAQIQGERIVATDNNGNRMTVIWPENDTKLLDELVQNGVLTSIQE	0.12
HMGAGLLEPEPLKIEIQETQERLQKLQKALERDTETADSKERIKRAIEAHKARISQLQGLIE	0.0635
HMVSKIEAPLPGIILSVDVKEGDTVKAGDKLMVMEAMKMENAILAETNGVVKSIKVKIQDSVLQGDILAEI	-0.171
HMVMSVGENIAYFRKKLGLTQEMLSERIGVTAQAVSKWENGVTNPDISLLPRISEALGIGIGDLFD	-0.299
HMNPEAFIQTLKQILSTYEKNDPIYLQEIKADLVKKFRIEIPINALETYLKENGYSNIYLKR	-0.133
HMEINKLIELIGGYKALSEVLNVSKSAISNYKKRGSLPSYAIPIIVKELKSKGISIDLSEFT	-0.66
HMKKTITISNYINVRDFATMSELPVNSILSVLMKNGIFVSLNEKIDFDTAWLVGSELGLEVKQKQG	-0.214
HMSGYSTLFTRMSREDAQAVVSLLQDDGIEYRYNDDTGTVQVPSATVDQTRAKLVSAGYPRS	-0.231
HMLSADLLDKIQRIDSLEQQGKYAQAEKEARALLSDPSITPSERASVQNILSSIARKKAAQAQ	0.11

Sequence	soluble fraction (log2)
HMNPEDLSGVRKAAILLLTMDDEVTKDVMKGLDEEEIEAIGKEITNLKLIPDHVVHRVQEEFMTKVSK	0.0913
HMTQQNRDELYRRMIDAGWDQLVRNGIRSLRVEQVAAAVGIAKGTFYHFFDSKDDFIYAMLMENRQ	-3.07
HMSFESMGLTPRQADVLTLLLQGKSNKDIARRLVLSVETVKDHVQAVLRALGVSSRTQAVLAVGQMTQQ	-0.292
HMTYMWTTDGVNLRSEPNTDSAVVTVLGVGTQVRMIGEEDGWVKVSFNDQEGYIRADFLTTE	-0.0926
HMLTLEDMTRINSIISPRIKKGQSLYHIAKNNGDELNISESTLRRLVMTGEMDAGIIDLPQAVK	-0.138
HMQDTYQVKLLTNLNIRKSPNGTIVQKGGAKKGIIYTIVETSGTWGRLKSNAGWISVSDKYVTK	-3.43
HMSLGTDVVPDFTGKGIKEAKTEFAAYSEGELYIIGEGEKVKEQFPLPGEKVNKNSDLILYV	0.101
HMPKLPIIYVLDGHVNKNALTTSGKNKVWIEHELKKHHINSIKDVLIAMTDTEGKFYYQLYD	-1.44
HMGQVLEGVFRRKANGKNAFIPDGGGEPILVAERNSAHAMDGDRVKATLLARRKHHVREAQVTEILKRSSK	-0.0521
HMQPSFFEMIRMVESYIKQHFENVGNEFPEIARAIYYGIEEERNIYGTASREDMEELLDEGIPILPVP	-0.926
HMPAFWILAVLAGGRRHGYQIMREAALSSEGLVTLKPTTLYAALERLERDGAIQQDGEEIVDGRVRRYYRI	0.259
HMLDQSYYETANEIISRYPLEEKSLIPIIQDIQATYRYLPPDLLDYVAKKIGITETKAYSVASFYENFSF	-0.327
HMSRLGINTTIEDIKMVGKIIMPLLKQGQSVYQILASHPEIPYSEKTLYSYIEDNIFKDAGIDISVFDL	-0.931
HMNEISLKEITIEEDHPWRDKKIKELDLKEHILVAMIRRKDQDIIPNGETKIYKDDILVIYD	0.144
HMPAKDAEFTAFVRSATPTLTRTAYLLTGDRETASDLVQEAFVRTYLAWRRVRPEEATAYTRRVLVN	0.0368
HMAISQYGSQSDEVTKIQTRLKAWGYFDGPVTAYYGSQTTEAVKKFQQKHGLSATGVADAKTLELIGLP	-0.36
HMGTGTYQVWSANGLGVRMRSGPGTGYRILAVYSVGTSVTVLQKGAYWSYIRVGSRTGYMMNQFLVSG	0.139
HMNQIATSTQAIITTLSFLNTSSIFKLPVGDTASRPTGVSPGTLRFNSQEDSAEIYKADDGTGSAGWTEVA	0.0743
HMFKYLLDTNIVIYVIKKRPIEVMGVFNQNANRMAISAITFSELQHGAEKSVRVQENLNAIEEFTTLIDI	0.181
HMQINDSSVVQKAVNDVIDQNSKAVSDYWDGKEGAAKFLMGQVMKLTRGQANPDLANQLILTRLQQERV	0.264
HMKTKHISIAEGMSLYTRDRSPFYWGYLNIEGVIHKKSLKTDVVDEAIKLLSIWKNELLNSITK	-1.28
HMAEAAVELSQQILARLLEAGGSLPLSDKSSPEDIHRLFGVSKRTFKKAIGGLYKKGLILIHPERIELP	-0.588
HMDRTIGEIGLVTETIDSTLESGRVMVDGLSWKARTSDNTVLEAGTRVQVKEIHGVTLTVEKA	0.166
HMVRSLADQVYERLRRNIVSGDLAPNARIVELDIAAQMGTSQGPVREALQRLEREGLVQRRAHSATFVTD	-0.279
HMEQLNKNIKFDNFLESLNFINKVSEVAEEENHHPDLKFGWGYADITIFTHAIKGLSEGDFVLAAKIDVI	0.269
HMYAEVTITIEKGMTSDSVSKLLYKAGIVDDAKEFNNYIIKAGKSTKILIGEFTIQKGASYDDIIKIIA	-1.37

Sequence	soluble fraction (log2)
HMLLNSLIDTLAAEKATVVPGTEVFKLYDTYGFPWELTEEIASERGFTIDHEGFEAAMKEQRERAREARV	-0.0257
HMGPFYFDQDGKAYSGLLNRNGEILYFADPFNAAVKNTTKTIDGKTYTFNQNGRATSIDGIPLEPP	0.142
HMEVPQVETEKVEAKLKEAEVLLVKVTDSSLKANATETLAGLRNNLTLQTMDNNGIMAEAEKLLALLRES	0.0393
HMSGVSESIEKKIQYLLLEKPLPLHDLIEAIEIGKEEDRLKVLRSLMDSDTVKIEDDLYHWNA	-0.0841
HMQNPDHLLALAAAAQAAIELGRPDEAEAYYRHLVEVYGVEMASQKPEYLDHSGITNDLRNVAEGFLVG	-0.746
HMSVVKPIYIGMMTSEVEAIMGKPFEVITNNNSKNNQLWIYKYQDKRSVMLTFTNYKLIKIE	-0.819
HMAEPIEKIIIEGNQRIEALTIQSYLLLRVGEPFNRQLMNQTLKSLYATGYFSDVAVTRVSSSLLVK	0.133
HMIAKEDDGTAFLIDGKISSEEEFKTISKDDILEVFVYKETEIAQKKLDSINSINNTYYTSLIEILLKE	-0.127
HMSRSSQMVNFIRLLSQEKKVSVNSIFSSSVQLSDGIIVKINDFYYRVNLSLDQKTYSLVEVS	-0.486
HMGKSDEIFIQKSALYEELGQPDRALEMIYSALKSDSLNIDVLHRLVTLLINQNKNEDAILYNQKIID	-0.193
HMSGQKDVPDLYGMTVKQAKKEVEAAGFKLKEGKEVYSNDYSKGQIAEQDPESGSKAKKGSSITVHVSKG	0.0677
HMQSLDGPSRAAIVLMAIGPDVAGELIKSFSPAEAQKVSSLLATVRSLDREVMIEVLDSFKNITEH	-0.323
HMIGMDMQELIGRYKGDPDEMGKIELAAMSMLKLSEDMSSDHVLQKSKLRQDGLWLLKYVQE	-0.551
HMSMDYYSTLGVSKTASASDIKKAYRKLAMANHPDKGGDSAKFAKITEAYDVLKDPQKRNNYDQFGTA	0.162
HMSQQMSYSDFVKAVSARQIREAQIQGDKIYATDSTGNRLTIIRLDNDQRLVDDMINNDVNIIGLEE	0.156
HMGVENDGYVLPRELKKGDTVLIADLGKEATVLSPVDRNGNVEVLAGAAKTRVKLKNLRLIE	0.13
HMYKNAFITYDNNLYYLGSDSKMAIGWQSIGGNTYYFRNWGGMITGKQVIDGKTYVFDEDGKLVQSPD	-1.12
HMENDYTQAQFVQDLDSGVVREVIIIPNREAPTGYARVVFGDVVRELYATDIREVEALAREHGYEPTVED	0.209
HMVTVSAVNITPKGHTTVGFTDRSVNPPSNYYLRVGESADGWTVKDADFDDEIATLEKDGVAITLKL	-0.0772
HMSSVVARRARIATLVVETSVASQEELGRLLADEGITVTQATLSRDLDALGAVKVLSADGGTRYRIPGQ	-0.778
HMSQYELEDVEKQRLKFKNGDEKALWLLSDIYKDNSQSYEVRLAALRALSESRHPLIIFDIQSSVK	-0.208
HMDPTLFRLNILEGLGLEKKNLTSEEQEQLRFLYEHFSMKEILMTIDYIKKLNLEKSIVNLYRLMQHP	-0.0621
HMGLLGIYPNPVEGGSVRLLSDADLFGSRFELYDQSGKLVLNGFVTEGNFVSVKGISSGLYISVSYT	0.0024
HMSHANAALTPRARLRLAKLIVEEHWPVATAAKMFMVSPPTARKWATRFRAEGPAGMADRSSRP	-1.46
